A word on the Kd: it is the free concentration of one partner at which half of the binding sites on the other are occupied at equilibrium, for simple one-to-one binding.

In the series the test system is His6-Fur (Riemerella anatipestifer CH-1). The series can be described thus: EMSA. Conditions: 5 mM Mn2+ (surrogate for Fe2+); EMSA: 2.5% glycerol, 0.05% NP-40, 5 mM MgCl2, 1 uM ZnSO4, 5 mM MnCl2; 1 ug DNA, 2-8 ug Fur in 20 uL; room temperature 20 min; pH and salt not given; 6% native …. On the technique in general: In EMSA bound probe runs differently from free probe, usually more slowly.

For rhuB promoter (194 bp), the Kd is 4.3 nM.

Source of the values: article PMC10986502.
